This is an account of results in patent US20150344570A1 (published 2015).

T1: human FcγRIIb extracellular domain with C-terminal His tag (human, UniProt P31994 43-217)
T1 construct: extracellular domain; also called FcgRIIb; 2b; not shown: His tag attached to the C terminus
T1 sequence (looked up): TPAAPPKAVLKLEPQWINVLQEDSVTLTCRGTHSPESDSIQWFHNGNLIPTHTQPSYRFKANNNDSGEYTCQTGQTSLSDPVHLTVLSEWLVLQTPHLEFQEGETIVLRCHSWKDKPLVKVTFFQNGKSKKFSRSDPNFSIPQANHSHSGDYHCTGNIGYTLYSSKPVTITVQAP

B1: GpH7-B3 variant L328_07I/GpL16-k0 (Ho Ab) (antibody, human IgG1, kappa)
heavy: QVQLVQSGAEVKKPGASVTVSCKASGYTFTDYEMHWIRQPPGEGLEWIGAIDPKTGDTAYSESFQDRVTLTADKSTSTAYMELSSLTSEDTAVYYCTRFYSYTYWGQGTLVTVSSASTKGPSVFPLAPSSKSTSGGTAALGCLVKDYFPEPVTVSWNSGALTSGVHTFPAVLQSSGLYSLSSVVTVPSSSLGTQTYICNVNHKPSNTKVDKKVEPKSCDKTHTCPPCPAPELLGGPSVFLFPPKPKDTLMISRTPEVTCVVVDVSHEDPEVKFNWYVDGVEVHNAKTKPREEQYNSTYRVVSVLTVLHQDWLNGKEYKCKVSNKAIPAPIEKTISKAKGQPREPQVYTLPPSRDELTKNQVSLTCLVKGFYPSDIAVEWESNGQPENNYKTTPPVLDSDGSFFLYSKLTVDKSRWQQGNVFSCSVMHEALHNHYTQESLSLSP
light: DIVMTQSPLSLPVTPGEPASISCQASESLVHSNRNTYLHWYLQKPGQSPQLLIYKVSNRFSGVPDRFSGSGSGTDFTLKISRVEAEDVGVYYCSQNTHVPPTFGQGTKVEIERTVAAPSVFIFPPSDEQLKSGTASVVCLLNNFYPREAKVQWKVDNALQSGNSQESVTEQDSKDSTYSLSSTLTLSKADYEKHKVYACEVTHQGLSSPVTKSFNRGEC
notes: Anti-glypican-3 IgG1; mutation in both H chains; also called L328I homodimerized antibody
B2: GpH7-B3 variant L328_19Q/GpL16-k0 (Ho Ab) (antibody, human IgG1, kappa)
heavy: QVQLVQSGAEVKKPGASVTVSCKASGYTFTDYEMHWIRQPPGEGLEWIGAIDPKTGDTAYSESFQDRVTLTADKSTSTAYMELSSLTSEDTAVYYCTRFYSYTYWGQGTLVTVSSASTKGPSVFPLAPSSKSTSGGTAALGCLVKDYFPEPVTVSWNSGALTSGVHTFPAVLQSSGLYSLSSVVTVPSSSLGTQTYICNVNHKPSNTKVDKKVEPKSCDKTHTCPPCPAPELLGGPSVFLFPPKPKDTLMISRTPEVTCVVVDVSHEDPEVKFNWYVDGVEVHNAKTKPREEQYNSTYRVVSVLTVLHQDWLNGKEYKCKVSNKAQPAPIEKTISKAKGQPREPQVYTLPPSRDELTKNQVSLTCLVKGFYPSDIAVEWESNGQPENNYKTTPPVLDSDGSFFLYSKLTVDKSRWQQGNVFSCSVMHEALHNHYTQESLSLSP
light: DIVMTQSPLSLPVTPGEPASISCQASESLVHSNRNTYLHWYLQKPGQSPQLLIYKVSNRFSGVPDRFSGSGSGTDFTLKISRVEAEDVGVYYCSQNTHVPPTFGQGTKVEIERTVAAPSVFIFPPSDEQLKSGTASVVCLLNNFYPREAKVQWKVDNALQSGNSQESVTEQDSKDSTYSLSSTLTLSKADYEKHKVYACEVTHQGLSSPVTKSFNRGEC
notes: Anti-glypican-3 IgG1; mutation in both H chains; also called L328Q homodimerized antibody
B3: GpH7-B3 variant L328_15Y/GpL16-k0 (Ho Ab) (antibody, human IgG1, kappa)
heavy: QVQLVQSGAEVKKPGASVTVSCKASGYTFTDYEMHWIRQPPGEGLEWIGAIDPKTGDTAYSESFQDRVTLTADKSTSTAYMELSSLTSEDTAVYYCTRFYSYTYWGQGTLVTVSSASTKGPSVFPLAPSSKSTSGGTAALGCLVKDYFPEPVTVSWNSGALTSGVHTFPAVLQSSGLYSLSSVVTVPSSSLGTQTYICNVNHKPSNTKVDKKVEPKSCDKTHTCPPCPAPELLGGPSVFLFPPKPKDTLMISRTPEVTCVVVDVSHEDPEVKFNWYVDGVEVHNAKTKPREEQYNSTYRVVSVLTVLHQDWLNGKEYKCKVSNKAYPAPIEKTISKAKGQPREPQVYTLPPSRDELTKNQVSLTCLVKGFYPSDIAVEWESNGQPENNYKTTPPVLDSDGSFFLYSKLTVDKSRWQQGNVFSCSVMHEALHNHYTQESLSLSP
light: DIVMTQSPLSLPVTPGEPASISCQASESLVHSNRNTYLHWYLQKPGQSPQLLIYKVSNRFSGVPDRFSGSGSGTDFTLKISRVEAEDVGVYYCSQNTHVPPTFGQGTKVEIERTVAAPSVFIFPPSDEQLKSGTASVVCLLNNFYPREAKVQWKVDNALQSGNSQESVTEQDSKDSTYSLSSTLTLSKADYEKHKVYACEVTHQGLSSPVTKSFNRGEC
notes: Anti-glypican-3 IgG1; mutation in both H chains; also called L328Y homodimerized antibody
B4: GpH7-B3 variant L328_14T/GpL16-k0 (Ho Ab) (antibody, human IgG1, kappa)
heavy: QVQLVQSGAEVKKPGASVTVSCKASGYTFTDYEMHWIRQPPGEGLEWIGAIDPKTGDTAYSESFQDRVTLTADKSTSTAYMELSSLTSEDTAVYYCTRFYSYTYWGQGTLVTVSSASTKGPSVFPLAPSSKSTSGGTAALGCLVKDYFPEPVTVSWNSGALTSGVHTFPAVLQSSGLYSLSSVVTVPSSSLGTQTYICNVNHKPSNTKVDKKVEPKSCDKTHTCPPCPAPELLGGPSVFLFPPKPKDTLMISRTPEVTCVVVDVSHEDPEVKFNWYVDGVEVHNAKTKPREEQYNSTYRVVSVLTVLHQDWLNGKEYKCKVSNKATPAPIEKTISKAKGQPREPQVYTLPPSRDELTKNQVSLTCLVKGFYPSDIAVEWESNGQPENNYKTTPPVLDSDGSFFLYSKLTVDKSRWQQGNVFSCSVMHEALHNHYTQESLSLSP
light: DIVMTQSPLSLPVTPGEPASISCQASESLVHSNRNTYLHWYLQKPGQSPQLLIYKVSNRFSGVPDRFSGSGSGTDFTLKISRVEAEDVGVYYCSQNTHVPPTFGQGTKVEIERTVAAPSVFIFPPSDEQLKSGTASVVCLLNNFYPREAKVQWKVDNALQSGNSQESVTEQDSKDSTYSLSSTLTLSKADYEKHKVYACEVTHQGLSSPVTKSFNRGEC
notes: Anti-glypican-3 IgG1; mutation in both H chains; also called L328T homodimerized antibody
B5: GpH7-B3 variant P271_08L/GpL16-k0 (Ho Ab) (antibody, human IgG1, kappa)
heavy: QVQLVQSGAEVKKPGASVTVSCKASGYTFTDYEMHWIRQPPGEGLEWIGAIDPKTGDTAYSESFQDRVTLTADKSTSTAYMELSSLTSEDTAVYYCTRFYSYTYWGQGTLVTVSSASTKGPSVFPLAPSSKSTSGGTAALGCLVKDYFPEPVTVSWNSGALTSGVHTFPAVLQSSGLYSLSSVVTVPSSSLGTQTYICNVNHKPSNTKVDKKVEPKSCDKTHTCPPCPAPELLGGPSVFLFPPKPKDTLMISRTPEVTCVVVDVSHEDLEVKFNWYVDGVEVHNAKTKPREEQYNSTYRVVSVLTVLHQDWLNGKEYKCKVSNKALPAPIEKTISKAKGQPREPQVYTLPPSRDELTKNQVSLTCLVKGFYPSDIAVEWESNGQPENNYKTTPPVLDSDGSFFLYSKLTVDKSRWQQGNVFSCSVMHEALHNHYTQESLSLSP
light: DIVMTQSPLSLPVTPGEPASISCQASESLVHSNRNTYLHWYLQKPGQSPQLLIYKVSNRFSGVPDRFSGSGSGTDFTLKISRVEAEDVGVYYCSQNTHVPPTFGQGTKVEIERTVAAPSVFIFPPSDEQLKSGTASVVCLLNNFYPREAKVQWKVDNALQSGNSQESVTEQDSKDSTYSLSSTLTLSKADYEKHKVYACEVTHQGLSSPVTKSFNRGEC
notes: Anti-glypican-3 IgG1; mutation in both H chains; also called P271L homodimerized antibody
B6: GpH7-B3 variant P238_08L/GpL16-k0 (Ho Ab) (antibody, human IgG1, kappa)
heavy: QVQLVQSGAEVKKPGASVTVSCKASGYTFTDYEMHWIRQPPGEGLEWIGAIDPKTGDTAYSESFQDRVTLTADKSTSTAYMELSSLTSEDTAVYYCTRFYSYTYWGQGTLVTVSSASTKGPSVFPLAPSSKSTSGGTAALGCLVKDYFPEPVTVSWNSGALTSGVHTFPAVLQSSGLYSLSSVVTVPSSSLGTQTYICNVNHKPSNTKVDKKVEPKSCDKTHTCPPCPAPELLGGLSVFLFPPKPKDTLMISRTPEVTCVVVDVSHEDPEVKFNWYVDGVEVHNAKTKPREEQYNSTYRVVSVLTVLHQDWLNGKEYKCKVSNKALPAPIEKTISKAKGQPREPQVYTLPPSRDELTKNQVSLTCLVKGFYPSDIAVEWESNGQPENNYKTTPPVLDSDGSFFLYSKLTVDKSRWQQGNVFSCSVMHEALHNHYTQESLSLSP
light: DIVMTQSPLSLPVTPGEPASISCQASESLVHSNRNTYLHWYLQKPGQSPQLLIYKVSNRFSGVPDRFSGSGSGTDFTLKISRVEAEDVGVYYCSQNTHVPPTFGQGTKVEIERTVAAPSVFIFPPSDEQLKSGTASVVCLLNNFYPREAKVQWKVDNALQSGNSQESVTEQDSKDSTYSLSSTLTLSKADYEKHKVYACEVTHQGLSSPVTKSFNRGEC
notes: Anti-glypican-3 IgG1; mutation in both H chains; also called P238L homodimerized antibody
B7: GpH7-B3 variant P271_01G/GpL16-k0 (Ho Ab) (antibody, human IgG1, kappa)
heavy: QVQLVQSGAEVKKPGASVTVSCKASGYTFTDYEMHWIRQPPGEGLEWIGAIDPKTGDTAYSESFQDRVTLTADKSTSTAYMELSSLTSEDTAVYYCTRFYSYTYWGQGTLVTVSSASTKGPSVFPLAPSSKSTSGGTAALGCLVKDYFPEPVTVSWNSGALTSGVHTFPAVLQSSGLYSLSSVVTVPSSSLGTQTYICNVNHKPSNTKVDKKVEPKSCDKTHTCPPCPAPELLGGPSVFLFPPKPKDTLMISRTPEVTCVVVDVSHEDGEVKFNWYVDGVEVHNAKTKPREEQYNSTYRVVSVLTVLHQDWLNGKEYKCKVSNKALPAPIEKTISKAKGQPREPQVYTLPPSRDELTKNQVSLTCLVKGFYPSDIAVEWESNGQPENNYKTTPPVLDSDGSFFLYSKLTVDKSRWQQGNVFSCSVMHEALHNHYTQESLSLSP
light: DIVMTQSPLSLPVTPGEPASISCQASESLVHSNRNTYLHWYLQKPGQSPQLLIYKVSNRFSGVPDRFSGSGSGTDFTLKISRVEAEDVGVYYCSQNTHVPPTFGQGTKVEIERTVAAPSVFIFPPSDEQLKSGTASVVCLLNNFYPREAKVQWKVDNALQSGNSQESVTEQDSKDSTYSLSSTLTLSKADYEKHKVYACEVTHQGLSSPVTKSFNRGEC
notes: Anti-glypican-3 IgG1; mutation in both H chains; also called P271G homodimerized antibody
B8: GpH7-B3 variant P331_04F/GpL16-k0 (Ho Ab) (antibody, human IgG1, kappa)
heavy: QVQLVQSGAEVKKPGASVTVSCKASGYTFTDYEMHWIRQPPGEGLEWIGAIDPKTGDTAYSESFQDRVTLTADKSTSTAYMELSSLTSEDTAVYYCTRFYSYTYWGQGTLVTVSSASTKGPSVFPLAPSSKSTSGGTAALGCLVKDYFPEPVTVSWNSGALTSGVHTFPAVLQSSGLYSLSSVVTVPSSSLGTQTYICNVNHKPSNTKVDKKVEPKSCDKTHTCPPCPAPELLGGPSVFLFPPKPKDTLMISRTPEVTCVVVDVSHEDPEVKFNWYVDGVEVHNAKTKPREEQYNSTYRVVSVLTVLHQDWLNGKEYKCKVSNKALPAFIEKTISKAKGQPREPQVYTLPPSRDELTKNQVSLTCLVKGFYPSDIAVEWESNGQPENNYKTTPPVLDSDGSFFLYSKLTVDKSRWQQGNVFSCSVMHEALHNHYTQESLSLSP
light: DIVMTQSPLSLPVTPGEPASISCQASESLVHSNRNTYLHWYLQKPGQSPQLLIYKVSNRFSGVPDRFSGSGSGTDFTLKISRVEAEDVGVYYCSQNTHVPPTFGQGTKVEIERTVAAPSVFIFPPSDEQLKSGTASVVCLLNNFYPREAKVQWKVDNALQSGNSQESVTEQDSKDSTYSLSSTLTLSKADYEKHKVYACEVTHQGLSSPVTKSFNRGEC
notes: Anti-glypican-3 IgG1; mutation in both H chains; also called P331F homodimerized antibody

The assay concerns the target T1, human FcγRIIb extracellular domain with …. The experiment in a line: SPR (Biacore T100), antibody captured on antigen peptide chip, FcγRIIb as analyte; relative binding. Here is the method:
Analysis of interaction between objective antibody and the FcγR was carried out using Biacore T100 (GE Healthcare). HBS-EP+ (GE Healthcare) was used as the running buffer, and the measurement temperature was set to 25° C. Chips produced by immobilizing the antigen peptide by the amine coupling method to a Series S Sencor Chip CM5 (GE Healthcare), or alternatively, chips produced by allowing preliminarily biotinylated antigen peptides to interact with and immobilize onto a Series S Sensor Chip SA (certified) (GE Healthcare) were used. Antibodies of interest were captured onto an antigen peptide-immobilized chip, and allowed to interact to each FcγR diluted with running buffer. To regenerate and repeatedly use the chip, the antibodies captured on the chip were washed off by reacting 10 mM glycine-HCl, pH 1.5.
Take B1: the Ho/Con_2b is 188 % of control GpH7-B3/GpL16-k0 (=100). Take B2: the Ho/Con_2b was 111 % of control GpH7-B3/GpL16-k0 (=100). For B3, the Ho/Con_2b is 272 % of control GpH7-B3/GpL16-k0 (=100). For B4, the Ho/Con_2b was 146 % of control GpH7-B3/GpL16-k0 (=100). On to B5, for which the Ho/Con_2b is 113 % of control GpH7-B3/GpL16-k0 (=100). The value for B6 was 235 % of control GpH7-B3/GpL16-k0 (=100); that for B7 was 229 % of control GpH7-B3/GpL16-k0 (=100); that for B8 was 113 % of control GpH7-B3/GpL16-k0 (=100).
